Each block holds one molecule with its values, some of them ahead of it.
Assays:
Test in all cases: cell-based or functional assay
[1] = biological target: human RXR α (retinoid X receptor α) (human) (UniProt P19793)
[2] = biological target: mouse RXR β (retinoid X receptor β) (mouse) (UniProt P28704)
[3] = biological target: full-length spruce budworm C. fumiferana ultraspiracle receptor (CfUSP) (Choristoneura fumiferana)
[4] = biological target: spruce budworm C. fumiferana ultraspiracle receptor with deletion of the A/B transactivation domain (Cf ΔAB USP) (Choristoneura fumiferana)
[5] = biological target: mouse RXR γ (retinoid X receptor γ) (mouse) (UniProt P28705)
[6] = biological target: T1, full-length D. melanogaster ultraspiracle receptor (DmUSP) (Drosophila melanogaster)
T1 sequence (P20153 1-508, looked up): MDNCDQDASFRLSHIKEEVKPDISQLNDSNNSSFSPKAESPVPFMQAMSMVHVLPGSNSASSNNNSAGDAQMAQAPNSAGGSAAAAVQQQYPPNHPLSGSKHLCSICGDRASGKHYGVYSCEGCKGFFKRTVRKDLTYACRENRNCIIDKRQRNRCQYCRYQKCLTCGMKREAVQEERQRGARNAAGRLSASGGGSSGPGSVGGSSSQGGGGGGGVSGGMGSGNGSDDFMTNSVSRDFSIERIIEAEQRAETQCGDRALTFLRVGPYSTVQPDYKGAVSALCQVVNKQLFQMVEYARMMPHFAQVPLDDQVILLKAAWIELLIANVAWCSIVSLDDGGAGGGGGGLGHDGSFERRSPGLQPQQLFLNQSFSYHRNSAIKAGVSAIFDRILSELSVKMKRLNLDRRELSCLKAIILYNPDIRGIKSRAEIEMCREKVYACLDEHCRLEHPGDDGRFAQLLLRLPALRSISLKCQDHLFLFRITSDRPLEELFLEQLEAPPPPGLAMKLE

[7] = biological target: full-length mosquito A. aegypti ultraspiracle receptor, b-form (AaUSPb) (Aedes aegypti)
[8] = biological target: full-length mosquito A. aegypti ultraspiracle receptor, a-form (AaUSPa) (Aedes aegypti)
[9] = biological target: D. melanogaster ultraspiracle receptor with deletion of the AB transactivation domain (Dm ΔAB USP) (Drosophila melanogaster) (UniProt P20153)
[10] = biological target: mosquito A. aegypti ultraspiracle receptor with deletion of the A/B transactivation domain (Aa ΔAB USP) (Aedes aegypti)

Sequence of mouse RXR β (retinoid X receptor β) (mouse) (P28704 111-520 limits assumed): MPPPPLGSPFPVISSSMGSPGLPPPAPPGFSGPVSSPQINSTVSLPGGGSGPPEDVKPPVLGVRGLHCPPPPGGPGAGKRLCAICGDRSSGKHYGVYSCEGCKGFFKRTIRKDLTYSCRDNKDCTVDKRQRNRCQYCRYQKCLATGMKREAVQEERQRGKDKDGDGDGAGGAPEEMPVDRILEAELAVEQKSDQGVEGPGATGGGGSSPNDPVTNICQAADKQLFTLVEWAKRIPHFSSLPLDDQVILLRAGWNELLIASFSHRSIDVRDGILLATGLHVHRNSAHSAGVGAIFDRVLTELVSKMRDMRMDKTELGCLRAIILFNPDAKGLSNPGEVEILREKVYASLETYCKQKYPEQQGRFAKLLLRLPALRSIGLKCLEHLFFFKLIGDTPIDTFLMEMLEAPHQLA
Sequence of mouse RXR γ (retinoid X receptor γ) (mouse) (P28705 whole entry): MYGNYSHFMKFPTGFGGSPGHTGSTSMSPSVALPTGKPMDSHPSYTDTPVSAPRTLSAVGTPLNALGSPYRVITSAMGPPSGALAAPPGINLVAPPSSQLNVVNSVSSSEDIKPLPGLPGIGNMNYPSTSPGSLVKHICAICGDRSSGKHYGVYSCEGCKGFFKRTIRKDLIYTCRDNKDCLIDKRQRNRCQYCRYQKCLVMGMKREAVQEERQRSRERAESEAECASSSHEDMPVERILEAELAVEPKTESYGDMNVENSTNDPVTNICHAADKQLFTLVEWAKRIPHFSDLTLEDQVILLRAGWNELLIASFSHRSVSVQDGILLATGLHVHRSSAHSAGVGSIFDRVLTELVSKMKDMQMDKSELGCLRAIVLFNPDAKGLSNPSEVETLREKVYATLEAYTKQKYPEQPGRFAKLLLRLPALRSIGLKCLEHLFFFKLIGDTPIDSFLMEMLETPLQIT
Sequence of human RXR α (retinoid X receptor α) (human) (P19793 whole entry): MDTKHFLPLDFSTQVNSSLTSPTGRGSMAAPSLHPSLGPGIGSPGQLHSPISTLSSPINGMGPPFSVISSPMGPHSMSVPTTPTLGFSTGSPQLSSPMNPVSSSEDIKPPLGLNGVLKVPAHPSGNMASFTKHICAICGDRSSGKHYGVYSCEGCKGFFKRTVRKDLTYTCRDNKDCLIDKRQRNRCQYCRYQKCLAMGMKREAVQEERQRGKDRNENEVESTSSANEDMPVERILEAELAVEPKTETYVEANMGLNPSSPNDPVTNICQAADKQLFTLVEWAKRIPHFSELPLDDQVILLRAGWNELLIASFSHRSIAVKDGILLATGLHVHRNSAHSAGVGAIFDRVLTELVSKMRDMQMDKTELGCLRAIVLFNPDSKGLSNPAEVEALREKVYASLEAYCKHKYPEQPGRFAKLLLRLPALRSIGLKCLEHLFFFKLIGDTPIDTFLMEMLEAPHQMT

Molecule: full-length mosquito A. aegypti ecdysone receptor (AaEcR) (from UniProt P49880 1-776)
β-galactosidase activity (yeast 6x EcRE-lacZ reporter), DMSO, without GRIP1 [7]: 3 | β-galactosidase activity (yeast 6x EcRE-lacZ reporter), RH 5992 10 µM, without GRIP1 [7]: 2.7 | β-galactosidase activity (yeast 6x EcRE-lacZ reporter), DMSO, without GRIP1 [8]: 2.3 | β-galactosidase activity (yeast 6x EcRE-lacZ reporter), RH 5992 10 µM, without GRIP1 [8]: 2.45

Molecule: mosquito A. aegypti ecdysone receptor with deletion of the A/B transactivation domain (Aa ΔAB EcR) (from UniProt P49880 285-776)
β-galactosidase activity (yeast 6x EcRE-lacZ reporter), DMSO, with GRIP1 [10]: 0.194 | β-galactosidase activity (yeast 6x EcRE-lacZ reporter), DMSO, without GRIP1 [10]: 0.187 | β-galactosidase activity (yeast 6x EcRE-lacZ reporter), RH 5992 10 µM, with GRIP1 [10]: 1.37 | β-galactosidase activity (yeast 6x EcRE-lacZ reporter), RH 5992 10 µM, without GRIP1 [10]: 0.196 | β-galactosidase activity (yeast 6x EcRE-lacZ reporter), DMSO, with GRIP1 [1]: 0.544 | β-galactosidase activity (yeast 6x EcRE-lacZ reporter), RH 5992 10 µM, with GRIP1 [1]: 2.03 | β-galactosidase activity (yeast 6x EcRE-lacZ reporter), DMSO, with GRIP1 [2]: 0.231 | β-galactosidase activity (yeast 6x EcRE-lacZ reporter), RH 5992 10 µM, with GRIP1 [2]: 1.98 | β-galactosidase activity (yeast 6x EcRE-lacZ reporter), DMSO, with GRIP1 [7]: 0.24 | β-galactosidase activity (yeast 6x EcRE-lacZ reporter), DMSO, without GRIP1 [7]: 0.177 | β-galactosidase activity (yeast 6x EcRE-lacZ reporter), RH 5992 10 µM, with GRIP1 [7]: 2.07 | β-galactosidase activity (yeast 6x EcRE-lacZ reporter), RH 5992 10 µM, without GRIP1 [7]: 0.184 | β-galactosidase activity (yeast 6x EcRE-lacZ reporter), DMSO, with GRIP1 [4]: 0.25 | β-galactosidase activity (yeast 6x EcRE-lacZ reporter), RH 5992 10 µM, with GRIP1 [4]: 3 | β-galactosidase activity (yeast 6x EcRE-lacZ reporter), DMSO, with GRIP1 [8]: 0.272 | β-galactosidase activity (yeast 6x EcRE-lacZ reporter), DMSO, without GRIP1 [8]: 0.194 | β-galactosidase activity (yeast 6x EcRE-lacZ reporter), RH 5992 10 µM, with GRIP1 [8]: 2.03 | β-galactosidase activity (yeast 6x EcRE-lacZ reporter), RH 5992 10 µM, without GRIP1 [8]: 0.209 | β-galactosidase activity (yeast 6x EcRE-lacZ reporter), DMSO, with GRIP1 [5]: 0.496 | β-galactosidase activity (yeast 6x EcRE-lacZ reporter), RH 5992 10 µM, with GRIP1 [5]: 2.67

B1: full-length D. melanogaster EcR B-1 ecdysone receptor (receptor, Drosophila melanogaster, UniProt P34021 1-878, looked up)
chain: MKRRWSNNGGFMRLPEESSSEVTSSSNGLVLPSGVNMSPSSLDSHDYCDQDLWLCGNESGSFGGSNGHGLSQQQQSVITLAMHGCSSTLPAQTTIIPINGNANGNGGSTNGQYVPGATNLGALANGMLNGGFNGMQQQIQNGHGLINSTTPSTPTTPLHLQQNLGGAGGGGIGGMGILHHANGTPNGLIGVVGGGGGVGLGVGGGGVGGLGMQHTPRSDSVNSISSGRDDLSPSSSLNGYSANESCDAKKSKKGPAPRVQEELCLVCGDRASGYHYNALTCEGCKGFFRRSVTKSAVYCCKFGRACEMDMYMRRKCQECRLKKCLAVGMRPECVVPENQCAMKRREKKAQKEKDKMTTSPSSQHGGNGSLASGGGQDFVKKEILDLMTCEPPQHATIPLLPDEILAKCQARNIPSLTYNQLAVIYKLIWYQDGYEQPSEEDLRRIMSQPDENESQTDVSFRHITEITILTVQLIVEFAKGLPAFTKIPQEDQITLLKACSSEVMMLRMARRYDHSSDSIFFANNRSYTRDSYKMAGMADNIEDLLHFCRQMFSMKVDNVEYALLTAIVIFSDRPGLEKAQLVEAIQSYYIDTLRIYILNRHCGDSMSLVFYAKLLSILTELRTLGNQNAEMCFSLKLKNRKLPKFLEEIWDVHAIPPSVQSHLQITQEENERLERAERMRASVGGAITAGIDCDSASTSAAAAAAQHQPQPQPQPQPSSLTQNDSQHQTQPQLQPQLPPQLQGQLQPQLQPQLQTQLQPQIQPQPQLLPVSAPVPASVTAPGSLSAVSTSSEYMGGSAAIGPITPATTSSITAAVTASSTTSAVPMGNGVGVGVGVGGNVSMYANAQTAMALMGVALHSHQEQLIGGVAVKSEHSTTA
β-galactosidase activity (yeast 6x EcRE-lacZ reporter), DMSO, without GRIP1 [6]: 2.09 | β-galactosidase activity (yeast 6x EcRE-lacZ reporter), RH 5992 10 µM, without GRIP1 [6]: 1.95

Second part, the molecule after the results:

β-galactosidase activity (yeast 6x EcRE-lacZ reporter), DMSO, with GRIP1 [1]: 0.27 | β-galactosidase activity (yeast 6x EcRE-lacZ reporter), RH 5992 10 µM, with GRIP1 [1]: 2.06 | β-galactosidase activity (yeast 6x EcRE-lacZ reporter), DMSO, with GRIP1 [2]: 0.205 | β-galactosidase activity (yeast 6x EcRE-lacZ reporter), RH 5992 10 µM, with GRIP1 [2]: 0.456 | β-galactosidase activity (yeast 6x EcRE-lacZ reporter), DMSO, without GRIP1 [3]: 2.68 | β-galactosidase activity (yeast 6x EcRE-lacZ reporter), RH 5992 10 µM, without GRIP1 [3]: 3 | β-galactosidase activity (yeast 6x EcRE-lacZ reporter), DMSO, with GRIP1 [4]: 0.2 | β-galactosidase activity (yeast 6x EcRE-lacZ reporter), DMSO, without GRIP1 [4]: 0.209 | β-galactosidase activity (yeast 6x EcRE-lacZ reporter), RH 5992 10 µM, with GRIP1 [4]: 2.5 | β-galactosidase activity (yeast 6x EcRE-lacZ reporter), RH 5992 10 µM, with GRIP1 (Table 4 prints another value than Table 3 for this combination) [4]: 3 | β-galactosidase activity (yeast 6x EcRE-lacZ reporter), RH 5992 10 µM, without GRIP1 [4]: 0.234 | β-galactosidase activity (yeast 6x EcRE-lacZ reporter), DMSO, with GRIP1 [5]: 0.2 | β-galactosidase activity (yeast 6x EcRE-lacZ reporter), RH 5992 10 µM, with GRIP1 [5]: 1.03
Molecule: spruce budworm C. fumiferana ecdysone receptor with deletion of the AB transactivation domain (Cf ΔAB EcR)

β-galactosidase activity (yeast 6x EcRE-lacZ reporter), DMSO, with GRIP1 [6]: 0.424 | β-galactosidase activity (yeast 6x EcRE-lacZ reporter), DMSO, without GRIP1 [6]: 0.152 | β-galactosidase activity (yeast 6x EcRE-lacZ reporter), RH 5992 10 µM, with GRIP1 [6]: 2.54 | β-galactosidase activity (yeast 6x EcRE-lacZ reporter), RH 5992 10 µM, without GRIP1 [6]: 0.182 | β-galactosidase activity (yeast 6x EcRE-lacZ reporter), DMSO, with GRIP1 [7]: 0.251 | β-galactosidase activity (yeast 6x EcRE-lacZ reporter), RH 5992 10 µM, with GRIP1 [7]: 2.07 | β-galactosidase activity (yeast 6x EcRE-lacZ reporter), DMSO, with GRIP1 [3]: 1.15 | β-galactosidase activity (yeast 6x EcRE-lacZ reporter), RH 5992 10 µM, with GRIP1 [3]: 1.41 | β-galactosidase activity (yeast 6x EcRE-lacZ reporter), DMSO, with GRIP1 [4]: 0.235 | β-galactosidase activity (yeast 6x EcRE-lacZ reporter), RH 5992 10 µM, with GRIP1 [4]: 0.59 | β-galactosidase activity (yeast 6x EcRE-lacZ reporter), DMSO, with GRIP1 [8]: 0.243 | β-galactosidase activity (yeast 6x EcRE-lacZ reporter), RH 5992 10 µM, with GRIP1 [8]: 1.86 | β-galactosidase activity (yeast 6x EcRE-lacZ reporter), DMSO, with GRIP1 [9]: 0.34 | β-galactosidase activity (yeast 6x EcRE-lacZ reporter), RH 5992 10 µM, with GRIP1 [9]: 2.32 | β-galactosidase activity (yeast 6x EcRE-lacZ reporter), DMSO, with GRIP1 [5]: 0.364 | β-galactosidase activity (yeast 6x EcRE-lacZ reporter), RH 5992 10 µM, with GRIP1 [5]: 1.28
Molecule: N-terminal truncated D. melanogaster EcR B-1 ecdysone receptor (Dm ΔN EcR) (from UniProt P34021 221-878)

β-galactosidase activity (yeast 6x EcRE-lacZ reporter), DMSO, without GRIP1 [3]: 2.73 | β-galactosidase activity (yeast 6x EcRE-lacZ reporter), RH 5992 10 µM, without GRIP1 [3]: 3 | β-galactosidase activity (yeast 6x EcRE-lacZ reporter), DMSO, with GRIP1 [4]: 0.223 | β-galactosidase activity (yeast 6x EcRE-lacZ reporter), DMSO, without GRIP1 [4]: 0.205 | β-galactosidase activity (yeast 6x EcRE-lacZ reporter), RH 5992 10 µM, with GRIP1 [4]: 0.492 | β-galactosidase activity (yeast 6x EcRE-lacZ reporter), RH 5992 10 µM, without GRIP1 [4]: 0.241
Molecule: full-length spruce budworm C. fumiferana ecdysone receptor (CfEcR)
